Measured values as given in publication PMC12109978.

B1: human tropomodulin 1 (Tmod1) (natural protein)
chain: MSYRRELEKYRDLDEDEILGALTEEELRTLENELDELDPDNALLPAGLRQKDQTTKAPTGPFKREELLDHLEKQAKEFKDREDLVPYTGEKRGKVWVPKQKPLDPVLESVTLEPELEEALANASDAELCDIAAILGMHTLMSNQQYYQALSSSSIMNKEGLNSVIKPTQYKPVPDEEPNSTDVEETLERIKNNDPKLEEVNLNNIRNIPIPTLKAYAEALKENSYVKKFSIVGTRSNDPVAYALAEMLKENKVLKTLNVESNFISGAGILRLVEALPYNTSLVEMKIDNQSQPLGNKVEMEIVSMLEKNATLLKFGYHFTQQGPRLRASNAMMNNNDLVRKRRLADLTGPIIPKCRSGV

Assays:
[1] = molecular target: human tropomodulin 1 (Tmod1) (human) (UniProt P28289); assay: SEC; Superose 6 Increase 10/300 GL, 50 mM HEPES-Na pH 7.3, 150 mM NaCl, 1 mM DTT, 0.5 mL/min, 280 nm; 30 µM Tpm and Tmod1, or 26 µM Tpm and 13 µM Tmod4; single proteins and mixtures
[2] = molecular target: human tropomodulin 4 (Tmod4) (human) (UniProt Q9NZQ9); assay: pull-down; His-tagged Tmod4 (6 µM) incubated 20 min with 3 to 24 µM Tpm in 30 mM HEPES-Na, 200 mM NaCl, pH 7.3, then captured on IMAC Ni-charged resin, eluted with 500 mM imidazole; SDS-PAGE, densitometry
[3] = molecular target: human tropomyosin Tpm1.1 with Ala-Ser N-terminal extension (human)

Chain of UniProt Q9NZQ9 (Q9NZQ9 whole entry): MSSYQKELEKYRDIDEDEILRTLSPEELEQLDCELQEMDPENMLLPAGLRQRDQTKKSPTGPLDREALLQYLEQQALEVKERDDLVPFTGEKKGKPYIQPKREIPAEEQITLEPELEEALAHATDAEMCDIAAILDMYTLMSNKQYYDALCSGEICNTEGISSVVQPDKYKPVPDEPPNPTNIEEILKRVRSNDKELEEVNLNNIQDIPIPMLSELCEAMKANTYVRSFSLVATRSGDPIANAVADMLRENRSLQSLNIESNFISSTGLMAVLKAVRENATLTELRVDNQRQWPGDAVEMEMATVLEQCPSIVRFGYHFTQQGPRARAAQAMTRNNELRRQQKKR

| Molecule | stoichiometry N (Tpm1.1 per Tmod1) [1] | Tpm/Tmod ratio at which saturation is reached (Tpm/Tmod ratio) [2] | decrease of the sliding velocity of thin filaments containing Tpm1.1 over sheep ventricular myosin at pCa 5.2 by 500 nM Tmod1 [3] [%] |
| --- | --- | --- | --- |
| human tropomyosin Tpm1.1 with Ala-Ser N-terminal extension (natural protein) | 2 | 3 | – |
| human tropomyosin Tpm1.2 with Ala-Ser N-terminal extension (natural protein) | – | 2.5 | – |
| B1 | – | – | 30 |
